Molecular target: A/New Caledonia/20/1999 (H1N1) hemagglutinin, truncated recombinant HA (Influenza A virus A/New …, UniProt Q6WG00, strain)
Experiment: ELISA

B1: mAb BE1 (whole mouse antibody) (antibody, V domains shown)
VH: EVQLVESGGGLVQPKGSLKLSCATSGFTFNTFDMHWVRQAPGKDLEWVARIRTKGNSYATYYAASVKDRITISRDDSQSMLYLEMNSLRSEDTAMYYCVREGGHYYGYYFDFWGQGTTLTVSS
VL: EIQMTQTTSSLSASLGDRVTISCRASQDIYNYLNWYQQQPDGAVKLLIYYTSKLHSGVPSRFSGSGSGTDYSLTITNLEQEDIATYFCQQGYTLPYTFGGGTKLEIK
  binding result: binds

From article PMC11316637 (Structure (London, England : 1993), 2024)
